From patent US20250163167A1 (SYNTHEKINE, published 2025)
Substitutions are numbered along the chain they refer to.

What was measured:
[1] = molecular target: T1, human IL-10 receptor (hIL-10R alpha and beta chains) on HEK-Blue IL-10 reporter cells (human, UniProt Q13651 22-578; Q08334 20-325); assay: cell-based or functional assay
T1 sequence 1: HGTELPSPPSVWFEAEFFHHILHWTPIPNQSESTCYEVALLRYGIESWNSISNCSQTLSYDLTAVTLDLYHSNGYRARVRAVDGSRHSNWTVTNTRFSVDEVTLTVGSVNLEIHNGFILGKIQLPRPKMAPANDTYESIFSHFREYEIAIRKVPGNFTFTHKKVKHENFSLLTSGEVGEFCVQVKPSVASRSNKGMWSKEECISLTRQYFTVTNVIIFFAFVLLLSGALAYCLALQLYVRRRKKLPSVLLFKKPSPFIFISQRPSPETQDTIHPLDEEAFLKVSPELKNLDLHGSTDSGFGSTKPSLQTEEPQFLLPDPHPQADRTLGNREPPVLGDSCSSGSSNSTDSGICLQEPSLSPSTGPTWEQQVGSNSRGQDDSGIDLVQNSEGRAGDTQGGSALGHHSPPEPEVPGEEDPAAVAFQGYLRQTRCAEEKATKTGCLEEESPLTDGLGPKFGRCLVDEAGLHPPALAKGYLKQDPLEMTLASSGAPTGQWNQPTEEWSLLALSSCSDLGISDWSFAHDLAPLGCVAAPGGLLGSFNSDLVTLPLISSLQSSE
T1 sequence 2: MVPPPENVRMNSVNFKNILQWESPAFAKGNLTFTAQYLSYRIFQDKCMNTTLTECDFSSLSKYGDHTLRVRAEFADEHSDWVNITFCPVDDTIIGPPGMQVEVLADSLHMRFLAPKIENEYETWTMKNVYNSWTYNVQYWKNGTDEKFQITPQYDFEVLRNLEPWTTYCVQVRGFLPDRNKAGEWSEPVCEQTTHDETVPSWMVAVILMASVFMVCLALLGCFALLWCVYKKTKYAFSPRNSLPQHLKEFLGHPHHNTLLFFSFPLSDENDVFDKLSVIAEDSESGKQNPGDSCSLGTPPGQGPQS

hIL10Ra ECD antigen = molecular target: T2, hIL10Ra ECD antigen (human, UniProt Q13651 22-235); assay: periplasmic extract ELISA (PE-ELISA) of phage clones
T2 construct: also called ECD of IL10Ra; extracellular domain of hIL10Ra
T2 sequence: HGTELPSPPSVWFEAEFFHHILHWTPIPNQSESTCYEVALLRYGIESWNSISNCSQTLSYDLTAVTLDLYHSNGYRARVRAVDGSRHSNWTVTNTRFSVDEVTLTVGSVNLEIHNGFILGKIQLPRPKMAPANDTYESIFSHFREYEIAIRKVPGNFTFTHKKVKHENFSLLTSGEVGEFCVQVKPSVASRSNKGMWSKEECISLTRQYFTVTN

hIL10Rb ECD antigen = molecular target: T3, hIL10Rb ECD antigen (human, UniProt Q08334 20-220); assay: as above
T3 construct: Antigen of biopanning and PE-ELISA; also called extracellular domain of hIL10Rb
T3 sequence: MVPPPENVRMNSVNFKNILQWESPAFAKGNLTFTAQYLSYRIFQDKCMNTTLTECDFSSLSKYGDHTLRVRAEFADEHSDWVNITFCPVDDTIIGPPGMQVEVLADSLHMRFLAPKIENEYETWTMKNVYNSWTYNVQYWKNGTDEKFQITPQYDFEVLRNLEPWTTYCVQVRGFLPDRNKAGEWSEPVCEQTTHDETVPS

B1: IL10R binding molecule of SEQ ID NO: 301 (bispecific antibody)
chain: QVQLQESGGGSVQAGGSLRLSCAASGYSNCSYDMTWYRQAPGKEREFVSAIHSDGSTRYADSVKGRFFISQDNAKNTVYLQMNSLKPEDTAMYYCKTDPLHCRAHGGSWYSVRANYWGQGTQVTVSSGGGSQVQLQESGGGSVQAGGSLRLSCTVSRYTASVNYMGWFRQAPGKEREGVATIFTGAGTTYYANSVKGRFTISRDNAKNTAYLQMNSLKPEDTAIYYCAVDFRGGLLYRPAYEYTYRGQGTQVTVSSASHHHHHH
With B1 the “Abs 630 (25 nM)” value [1] was 2.05 Abs 630 and the “Abs 630 (100 nM)” value [1] was 1.91 Abs 630.

B2: IL10R binding molecule of SEQ ID NO: 302 (bispecific antibody)
chain: QVQLQESGGGSVQAGGSLRLSCAASGYSNCSYDMTWYRQAPGKEREFVSAIHSDGSTRYADSVKGRFFISQDNAKNTVYLQMNSLKPEDTAMYYCKTDPLHCRAHGGSWYSVRANYWGQGTQVTVSSGGGSQVQLQESGGGSVEAGGSLRLSCAASGYTHSSYCMGWFRQAPGKEREGVAAIDVDGSTTYADSVKGRFTISKDNAKNTLYLQMNSLKPEDTGMYYCAAEFADCSSNYFLPPGAVRYWGQGTQVTVSSASHHHHHH
For B2, the “Abs 630 (25 nM)” value [1] was 1.98 Abs 630 and the “Abs 630 (100 nM)” value [1] was 2.09 Abs 630.

B3: IL10R binding molecule of SEQ ID NO: 303 (bispecific antibody)
chain: QVQLQESGGGSVQAGGSLRLSCAASGYSNCSYDMTWYRQAPGKEREFVSAIHSDGSTRYADSVKGRFFISQDNAKNTVYLQMNSLKPEDTAMYYCKTDPLHCRAHGGSWYSVRANYWGQGTQVTVSSGGGSQVQLQESGGGSVQAGGSLRLSCAASGYSYSSYCMGWFRQAPGKEREGVATIDSDGMTRYADSVKGRFTISKDNAKNTLYLQMNSLKPEDTAMYYCAAPLYDCDSGAVGRNPPYWGQGTQVTVSSASHHHHHH
With B3 the “Abs 630 (25 nM)” value [1] was 1.92 Abs 630 and the “Abs 630 (100 nM)” value [1] was 1.93 Abs 630.

B4: hIL10Ra VHH2 (VHH)
VHH: QVQLQESGGGSVQAGGSLRLSCVASRYLYSTNYMAWFRQSPGKEREAVAVIYTASGATLYTDSVKGRFTISQDNAKMTVYLQMNRLKSEDTAMYYCAAVRKTDSYLFDAQSFTYWGQGTQVTVSS
notes: Phage clone, periplasmic extract
B4: binds (hIL10Ra ECD antigen).

B5: hIL10Ra VHH3 (VHH)
VHH: B4 VHH with V12I
notes: as for B4
B5: binds (hIL10Ra ECD antigen).

B6: hIL10Ra VHH4 (VHH)
VHH: B4 VHH with V12I, V23A, T31I, N32D, A47P, V48A, L59F, T61P, R85S
notes: as for B4
B6: binds (hIL10Ra ECD antigen).

B7: hIL10Ra VHH5 (VHH)
VHH: B4 VHH with V12I, R26K, V50A, T61S, V64N, R85S, D103G
notes: as for B4
B7: binds (hIL10Ra ECD antigen).

B8: hIL10Ra VHH18 (VHH)
VHH: QVQLQESGGGSVQAGGSLRLSCAVSGYTYNSNCMGWFRQAPGKEREGVATIYTGVGSTYYADSVKGRFTISQDNAKNTVYLQMNSLKPEDTAMYYCAAEPLSRVYGGSCPTPTFGYWGQGTQVTVSS
notes: as for B4
B8: binds (hIL10Ra ECD antigen).

B9: hIL10Ra VHH7 (VHH)
VHH: B8 VHH with Y29F
notes: as for B4
B9: binds (hIL10Ra ECD antigen).

B10: hIL10Ra VHH13 (VHH)
VHH: B8 VHH with T28S, N30S, Y52H, V55G, V104L
notes: as for B4
B10: binds (hIL10Ra ECD antigen).

B11: hIL10Ra VHH11 (VHH)
VHH: QVQLQESGGGSVQAGGSLRLSCGASRYTYSSYCMGWFRQAPGKEREGVAVIDSDGSTSYADSVKGRFTISKDNGKNTLYLQMNSLKPEDTAMYYCAADLGHYRPPCGVLYLGMDYWGKGTQVTVSS
notes: as for B4
B11: binds (hIL10Ra ECD antigen).

B12: hIL10Ra VHH15 (VHH)
VHH: B11 VHH with R26G, S31G
notes: as for B4
B12: binds (hIL10Ra ECD antigen).

B13: hIL10Ra VHH16 (VHH)
VHH: QVQLQESGGGSVQAGGSLRLACAASRYTYSNYCMGWFRQAPGKEREGVATIDSDGNTSYADSVKGRFTISRDNAKNTLYLQMNSLKPGDTAMYYCAADLGHYRPPCGAYYYGMDYWGKGTQVTVSS
notes: as for B4
B13: binds (hIL10Ra ECD antigen).

B14: hIL10Rb VHH-2 (VHH)
VHH: QVQLQESGGGSVQAGGSLRLSCAASGYTYSSYCMGWFRQAPGKEREGVAAIDSDGSTRYADSVKGRFTISKDNAKNTLYLQMNSLKPEDTAMYYCAAEPYCSGGYKRTMVAEFGYWGQGTQVTVSS
notes: as for B4
B14: binds (hIL10Rb ECD antigen).

B15: hIL10Rb VHH-7 (VHH)
VHH: B14 VHH with Y32G, A50T, D52N, R58N, K106P, T108W, M109S
notes: as for B4
B15: binds (hIL10Rb ECD antigen).

B16: hIL10Rb VHH-8 (VHH)
VHH: QVQLQESGGGSVQAGGSLRLSCAASGYSYSSYCMGWFRQAPGKEREGVAAIASDGSTSYADSVKGRFAISKDNAKNTLYLQMASLKPEDTAMYYCAAEPWCTGGYSRLTPAEYGYWGQGTQVTVSS
notes: as for B4
B16: binds (hIL10Rb ECD antigen).

B17: hIL10Rb VHH-9 (VHH)
VHH: B14 VHH with S11L, A14P, Y32G, A50T, D52N, R58N, K106P, T108W, M109S
notes: as for B4
B17: binds (hIL10Rb ECD antigen).

B18: hIL10Rb VHH-11 (VHH)
VHH: B14 VHH with E44G
notes: as for B4
B18: binds (hIL10Rb ECD antigen).

B19: hIL10Rb VHH-14 (VHH)
VHH: B14 VHH with Y32G, A50T, D52N, R58N, A91G, K106P, T108W, M109S
notes: as for B4
B19: binds (hIL10Rb ECD antigen).

B20: hIL10Rb VHH-18 (VHH)
VHH: B14 VHH with Y27D, A50F, K64E, K106H, T108K, M109E, V110M
notes: as for B4
B20: binds (hIL10Rb ECD antigen).

B21: hIL10Rb VHH-23 (VHH)
VHH: B14 VHH with N76K, T77I, P87V, Y115F
notes: as for B4
B21: binds (hIL10Rb ECD antigen).

B22: hIL10Rb VHH-5 (VHH)
VHH: QVQLQESGGGLVQPGGSLRLSCAASGYTYSSYCMGWFRQAPGKEREGVAHIDSDGSTTYADSVKGRFTISKDNAKNTLYLQMNSLKPEDTAMYYCAADPIPGPGYCDGGPNKYWGQGTQVTVSS
notes: as for B4
B22: binds (hIL10Rb ECD antigen).

B23: hIL10Rb VHH-10 (VHH)
VHH: B22 VHH with T68A
notes: as for B4
B23: binds (hIL10Rb ECD antigen).

B24: hIL10Rb VHH-13 (VHH)
VHH: B22 VHH with L11S, P14A, T58S, K112N
notes: as for B4
B24: binds (hIL10Rb ECD antigen).

B25: hIL10Rb VHH-20 (VHH)
VHH: B22 VHH with L11S, P14A, T68A
notes: as for B4
B25: binds (hIL10Rb ECD antigen).

B26: hIL10Rb VHH-22 (VHH)
VHH: B22 VHH with L11S, P14A, Y29D, S31R, Q39K, T58S
notes: as for B4
B26: binds (hIL10Rb ECD antigen).

B27: hIL10Rb VHH-24 (VHH)
VHH: B22 VHH with L11S, P14A, R19K, K112N
notes: as for B4
B27: binds (hIL10Rb ECD antigen).

B28: hIL10Rb VHH-25 (VHH)
VHH: B22 VHH with L11S, P14A, V48I, K112N
notes: as for B4
B28: binds (hIL10Rb ECD antigen).

B29: hIL10Rb VHH-17 (VHH)
VHH: QVQLQESGGGSVQAGGSLRLSCTVSRYTASVNYMGWFRQAPGKEREGVATIFTGAGTTYYANSVKGRFTISRDNAKNTAYLQMNSLKPEDTAMYYCAVDFRGGLLYRPAYEYTYRGQGTQVTVSS
notes: as for B4
B29: binds (hIL10Rb ECD antigen).
